Measured values reported in US6491893B1, “Compounds for targeting and imaging infection and inflammation” (Biostream, Inc., priority 1999, dated 2002).
Read-outs that look alike come from different tables or passages of the source.

Tests used:
[1] = cited from earlier work
[2] = cited from earlier work; remark: listed apart in the source
[3] = tested on: intramuscular bacterial infections (E. coli, left posterior thigh); test: Gamma camera imaging, T/B ratios from ROI analysis of scintigrams (Example 1, Table 1); type: in vivo, New Zealand white rabbits; conditions: for average Target:Background (T/B) ratio, gamma camera images: Average of 2 rabbits
Method: (§1) In order to label G-CSF with radioindium (^111In), G-CSF was conjugated with diethylenetriaminepentacetic acid (DTPA) via the active ester. DTPA conjugated G-CSF was labeled with In-111 and injected into rabbits bearing intramuscular bacterial infections. Two New Zealand white rabbits weighing approximately 2-3 kg were injected in their left posterior thigh with a 0.5 ml suspension of ˜10^9 E. coli for infection imaging and biodistribution studies. Animals were injected with In-111-DTPA-G-CSF at 24 hr after bacterial injection, when the animals were judged to have moderate infections by palpation.
[…], the animals were anesthetized with ketamine/xylazine (15.0 and 1.5 mg/kg) and scintigrams were acquired using a large field of view gamma camera equipped with a parallel hole medium energy collimator. Regions-of-interest (ROI's) were drawn over the area of infection and the contralateral normal muscle and target-to-background (T/B) ratios were calculated. After acquiring the final images, the animals were sacrificed with an over dose of sodium pentobarbital and biodistribution was determined. For comparison with the imaging results, infected to normal muscle and pus to normal muscle ratios were calculated from biodistribution data.

[4] = tested on: intramuscular bacterial infections (E. coli, left posterior thigh); type: in vivo, New Zealand white rabbits; conditions: from biodistribution data
Method: as §1
At 4 and 18 hours following injection of the In-111-DTPA-G-CSF, the animals were anesthetized with ketamine/xylazine (15.0 and 1.5 mg/kg) and scintigrams were acquired using a large field of view gamma camera equipped with a parallel hole medium energy collimator. Regions-of-interest (ROI's) were drawn over the area of infection and the contralateral normal muscle and target-to-background (T/B) ratios were calculated. After acquiring the final images, the animals were sacrificed with an over dose of sodium pentobarbital and biodistribution was determined. For comparison with the imaging results, infected to normal muscle and pus to normal muscle ratios were calculated from biodistribution data.

[5] = after intravenous administration over 30 min
[6] = Average, 18 Hours Post Injection
[7] = Rabbit #1, 18 Hours Post Injection
[8] = Rabbit #2, 18 Hours Post Injection

## GM-CSF: colony stimulating factor promoting growth of progenitors of several myeloid lines
[1]; [5]
  distribution half-life (T sub ½ alpha): 5 to 15 min
  elimination phase (T sub ½ Beta): 1 to 9 h
[1]; after single subcutaneous bolus injections
  time to peak serum concentration: ≤ 4 h
[1]; single subcutaneous bolus injections, doses of 10 mμ g/kg
  elimination half-life: 174 min
[1]; subcutaneous doses of 5-10 mμ g/kg, for 8-24 h
  serum concentration achieved: >= 10 ng/mL
[1]; subcutaneous doses of 5-10 mμ g/kg
  time serum concentrations >=10 ng/mL are achieved: 8 to 24 h

B1: G-CSF: full length protein, polypeptide or peptide corresponding to natural G-CSF that binds to a CSF receptor (protein, UniProt P09919 31-207, looked up)
Granulocyte …: TPLGPASSLPQSFLLKCLEQVRKIQGDGAALQEKLVSECATYKLCHPEELVLLGHSLGIPWAPLSSCPSQALQLAGCLSQLHSGLFLYQGLLQALEGISPELGPTLDTLQLDVADFATTIWQQMEELGMAPALQPTQGAMPAFASAFQRRAGGVLVASHLQSFLEVSYRVLRHLAQP
[2]; after doses of 5-10 μg/kg, for up to 16 h
  serum concentration maintained: > 10 ng/mL
[2]; after doses of 5-10 mμ g/kg
  time serum concentrations of >10 ng/mL are maintained: up to 16 h
[2]; after short (20-30 min) intravenous infusions
  time C sub max values are maintained: 30 to 60 min
[2]; after short intravenous infusions, doses up to 60 μg/kg
  estimated terminal half-life: 45 to 432 min
[2]; after single subcutaneous injections, by 24 h
  serum concentration by 24 h: < 10 % C sub max
[2]; after single subcutaneous injections
  time to peak serum concentration: 4 to 6 h

B2: In-111-DTPA-GCSF: G-CSF conjugated with diethylenetriaminepentacetic acid (DTPA) via the active ester and labeled with In-111 (conjugate, UniProt P09919 31-207, looked up)
Granulocyte …: B1 Granulocyte …
modifications: DTPA conjugate labeled with In-111
[3]; 3 hour after injection
  T/B ratio calculated from ROI analysis of scintigrams: 3.567
[3]; 17 hours after injection
  T/B ratio calculated from ROI analysis of scintigrams: 11.87
[3]; 4 hours post injection
  average Target:Background (T/B) ratio, gamma camera images: 3.567
[3]; 18 hours post injection
  average Target:Background (T/B) ratio, gamma camera images: 11.87
[3]; Rabbit #1, 4 hours post injection
  Infected to normal tissue ratio from gamma camera images: 3.359
[3]; Rabbit #1, 18 hours post injection
  Infected to normal tissue ratio from gamma camera images: 8.643
[3]; Rabbit #2, 4 hours post injection
  Infected to normal tissue ratio from gamma camera images: 3.775
[3]; Rabbit #2, 18 hours post injection
  Infected to normal tissue ratio from gamma camera images: 15.10
[3]; rabbits with E. coli infection
  localization at sites of infection (in words): effective agent for localizing sites of infection
[4]; [6]
  Infected/normal muscle ratio: 26.24
  Pus/normal muscle ratio: 59.16
[4]; [7]
  Infected/normal muscle #1 ratio: 36.89
  Infected/normal muscle #2 ratio: 21.54
  Infected/normal muscle #3 ratio: 20.11
  Infected/normal muscle #4 ratio: 20.95
  Infected/normal muscle #5 ratio: 15.63
  Pus/normal muscle ratio: 23.56
[4]; [8]
  Infected/normal muscle #1 ratio: 39.21
  Infected/normal muscle #2 ratio: 26.17
  Infected/normal muscle #3 ratio: 37.03
  Infected/normal muscle #4 ratio: 28.44
  Infected/normal muscle #5 ratio: 16.42
  Pus/normal muscle ratio: 94.76
